B1: minF1; the commonest letter at each place (parent)
chain: GAGACCGCAACTGAAAAGTTGTTATCAGAAATGGATGGGTTGAATTTCTGCACGTAGAAGCAAAAGGC

Variants of: B1
Test: fraction ligated after 30 min (ligated reads / total reads); higher = more ligase activity
Conditions: with F1*subA RNA substrate (template-directed ligation), 42 °C
In short: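 Using barcoded primers for reverse transcription and a MiSeq for sequencing, gel-separated ligated and unligated RNAs of minimized ligase ribozyme variants were read, with core-base filtering at quality ≥30. Fraction ligated per variant was defined as ligated reads over total reads.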

First: T32G G33A
Second: T32G G33T
The fraction ligated of the first is lower: 0.0116 for the first, 0.0125 for the second.

Going from A31G A44C to A31G A44G, the fraction ligated rises from 0.71 to 0.788.

Going from A31G A44T to T32G G42C, the fraction ligated falls from 0.804 to 0.00582.

First: T32G G42T
Second: T32G G42A
The fraction ligated of the first is lower: 0.00243 for the first, 0.00352 for the second.

Compared with A31C, A31G is lower in fraction ligated: 0.813 for the first, 0.805 for the second.

Going from A31T to T32A A35G, the fraction ligated falls from 0.815 to 0.0076.

Going from T32A A35C to T32A A35T, the fraction ligated falls from 0.00546 to 0.00186.

Compared with G34A G37T, G34A G37A is lower in fraction ligated: 0.00793 for the first, 0.00394 for the second.

Going from G34A G37C to A35C G42C, the fraction ligated falls from 0.00312 to 0.00254.

First: A35C G42A
Second: G33C A44G
The fraction ligated of the first is lower: 0.00288 for the first, 0.497 for the second.

Going from G33C A44T to G33C A44C, the fraction ligated falls from 0.598 to 0.383.

Going from T32C G42T to T32C G42A, the fraction ligated rises from 0.0036 to 0.00418.

First: T32C G42C
Second: T32G A44G
The fraction ligated of the first is lower: 0.00351 for the first, 0.0444 for the second.

Going from T32G A44C to T32G A44T, the fraction ligated falls from 0.067 to 0.0536.

Going from A31G T36C to A31G T36G, the fraction ligated rises from 0.0127 to 0.0415.

Compared with A31G T36A, T32C G37C is lower in fraction ligated: 0.0331 for the first, 0.00446 for the second.

First: T32C G37A
Second: T32C G37T
The fraction ligated of the first is higher: 0.00241 for the first, 0.00216 for the second.

First: G33C G42A
Second: G33C G42T
The fraction ligated of the first is higher: 0.132 for the first, 0.0409 for the second.

Compared with G33C G42C, G34A A44C is lower in fraction ligated: 0.011 for the first, 0.008 for the second.

Compared with G34A A44T, G34A A44G is lower in fraction ligated: 0.0265 for the first, 0.019 for the second.

First: A30T G33C
Second: A30T G33A
The fraction ligated of the first is lower: 0.663 for the first, 0.747 for the second.

Going from A30T G33T to A31T A35G, the fraction ligated falls from 0.387 to 0.339.

Compared with A31T A35C, A31T A35T is higher in fraction ligated: 0.0159 for the first, 0.0356 for the second.

First: T32A A43T
Second: T32A A43C
The fraction ligated of the first is higher: 0.0778 for the first, 0.0118 for the second.

Compared with T32A A43G, A31T T36A is higher in fraction ligated: 0.0134 for the first, 0.0236 for the second.

First: A31T T36C
Second: A31T T36G
The fraction ligated of the first is lower: 0.0101 for the first, 0.0351 for the second.

Going from A31C G37C to A31C G37A, the fraction ligated rises from 0.00598 to 0.0105.

First: A31C G37T
Second: A31T A44G
The fraction ligated of the first is lower: 0.0153 for the first, 0.82 for the second.

Compared with A31T A44C, A31T A44T is higher in fraction ligated: 0.745 for the first, 0.814 for the second.

First: G33A T36A
Second: G33A T36C
The fraction ligated of the first is higher: 0.0257 for the first, 0.0229 for the second.

Going from G33A T36G to G33T G37C, the fraction ligated falls from 0.0572 to 0.00397.

Going from G33T G37T to G33T G37A, the fraction ligated falls from 0.00922 to 0.00704.

Compared with T32C G33A, T32C G33T is higher in fraction ligated: 0.0169 for the first, 0.0247 for the second.

First: T32C G33C
Second: G33C G37C
The fraction ligated of the first is higher: 0.0121 for the first, 0.00381 for the second.

First: G33C G37A
Second: G33C G37T
The fraction ligated of the first is lower: 0.00724 for the first, 0.01 for the second.

Going from A31C G34C to A31C G34T, the fraction ligated rises from 0.0027 to 0.00764.

First: A31C G34A
Second: A31G G37T
The fraction ligated of the first is higher: 0.055 for the first, 0.0111 for the second.

Going from A31G G37C to A31G G37A, the fraction ligated rises from 0.00462 to 0.00669.

Compared with A30T A31T, A30T A31C is lower in fraction ligated: 0.818 for the first, 0.801 for the second.

First: A30T A31G
Second: A31C T32G
The fraction ligated of the first is higher: 0.785 for the first, 0.0132 for the second.

Compared with A31C T32C, A31C T32A is higher in fraction ligated: 0.0181 for the first, 0.0431 for the second.

Going from G34C A35T to G34C A35C, the fraction ligated falls from 0.00667 to 0.00352.

Going from G34C A35G to G33A A44G, the fraction ligated rises from 0.00539 to 0.576.

First: G33A A44T
Second: G33A A44C
The fraction ligated of the first is higher: 0.553 for the first, 0.479 for the second.

Going from A30T G42T to A30T G42A, the fraction ligated rises from 0.0705 to 0.202.

Compared with A30T G42C, A30T A43G is higher in fraction ligated: 0.00805 for the first, 0.0459 for the second.

First: A30T A43C
Second: A30T A43T
The fraction ligated of the first is lower: 0.0532 for the first, 0.0685 for the second.

Going from G34T G42C to G34T G42A, the fraction ligated rises from 0.00101 to 0.00242.

Going from G34T G42T to G34T G37C, the fraction ligated rises from 0.00241 to 0.00496.

First: G34T G37T
Second: G34T G37A
The fraction ligated of the first is lower: 0.00356 for the first, 0.00473 for the second.

Compared with T32C A35C, T32C A35T is lower in fraction ligated: 0.00582 for the first, 0.0031 for the second.

First: T32C A35G
Second: T32G G34C
The fraction ligated of the first is lower: 0.00362 for the first, 0.00552 for the second.

First: T32G G34A
Second: T32G G34T
The fraction ligated of the first is lower: 0.0029 for the first, 0.00509 for the second.

First: A31G A43T
Second: A31G A43G
The fraction ligated of the first is higher: 0.168 for the first, 0.101 for the second.

Going from A31G A43C to G33C A43G, the fraction ligated falls from 0.142 to 0.0324.

First: G33C A43T
Second: G33C A43C
The fraction ligated of the first is higher: 0.0544 for the first, 0.0394 for the second.

Going from T32G G37A to T32G G37T, the fraction ligated rises from 0.00205 to 0.00459.

Compared with T32G G37C, A31C T36G is higher in fraction ligated: 0.0035 for the first, 0.0226 for the second.

Compared with A31C T36C, A31C T36A is higher in fraction ligated: 0.0114 for the first, 0.0194 for the second.

Compared with T32A G37A, T32A G37T is higher in fraction ligated: 0.000603 for the first, 0.00279 for the second.

Compared with T32A G37C, A31C A35G is higher in fraction ligated: 0.00322 for the first, 0.199 for the second.

Going from A31C A35T to A31C A35C, the fraction ligated rises from 0.0132 to 0.0149.

Compared with A31G T32C, A31G T32G is higher in fraction ligated: 0.00833 for the first, 0.0239 for the second.

Going from A31G T32A to G33C T36A, the fraction ligated falls from 0.073 to 0.0174.

Compared with G33C T36G, G33C T36C is lower in fraction ligated: 0.0305 for the first, 0.00989 for the second.

Going from T32A to T32G, the fraction ligated falls from 0.0612 to 0.02.

Going from T32C to G34T A43C, the fraction ligated falls from 0.0302 to 0.00412.

First: G34T A43G
Second: G34T A43T
The fraction ligated of the first is lower: 0.0028 for the first, 0.00646 for the second.

Compared with G33A A43C, G33A A43G is lower in fraction ligated: 0.0816 for the first, 0.0533 for the second.

First: G33A A43T
Second: T32A G42T
The fraction ligated of the first is higher: 0.0914 for the first, 0.00743 for the second.

Compared with T32A G42C, T32A G42A is lower in fraction ligated: 0.00255 for the first, 0.00239 for the second.

Compared with G33A A35C, G33A A35G is higher in fraction ligated: 0.026 for the first, 0.265 for the second.

First: G33A A35T
Second: A30T
The fraction ligated of the first is lower: 0.0202 for the first, 0.823 for the second.

Compared with G34C A43G, G34C A43T is higher in fraction ligated: 0.00118 for the first, 0.0056 for the second.

Going from G34C A43C to G34A G42C, the fraction ligated rises from 0.00266 to 0.00302.

Going from G34A G42A to G34A G42T, the fraction ligated falls from 0.0111 to 0.00582.

Going from G33T G34C to G33T G34A, the fraction ligated rises from 0.00646 to 0.051.

First: G33T G34T
Second: A31C G42T
The fraction ligated of the first is lower: 0.00514 for the first, 0.0885 for the second.

First: A31C G42C
Second: A31C G42A
The fraction ligated of the first is lower: 0.00681 for the first, 0.279 for the second.

Going from A30T A35G to A30T A35T, the fraction ligated falls from 0.161 to 0.0204.

Compared with A30T A35C, G34A T36C is higher in fraction ligated: 0.0121 for the first, 0.0256 for the second.

First: G34A T36G
Second: G34A T36A
The fraction ligated of the first is higher: 0.0395 for the first, 0.0315 for the second.

Compared with T32A G33A, T32A G33T is higher in fraction ligated: 0.032 for the first, 0.0384 for the second.

Variant T32A G33C has a fraction ligated of 0.0102.

Reference: the supplement of paper PMC6755084
